Test results: patent US20230094162A1
Read-outs that look alike come from different tables or passages of the source. Blank lines part the entries; values can stand above or below the substance they belong to.

How the values were obtained:
[1] = molecular target: CD137 expressed on the cell surface (CHO/CD137 cells) (UniProt Q07011); test: cell-based or functional assay
[2] = molecular target: CD137 expressed on the cell surface (CHO/CD137 cells) (UniProt Q07011); test: flow cytometry on CHO/CD137 cells (Surface Binding)
[3] = molecular target: CD137 expressed on the cell surface (CHO/CD137 cells) (UniProt Q07011); test: flow cytometry (FACS) on CHO cells expressing CD137, MFI
[4] = molecular target: PD-L1 expressed on the cell surface (CHO/PD-L1 cells) (UniProt Q9NZQ7); test: flow cytometry (FACS) on CHO cells expressing PD-L1, MFI
Sequence of PD-L1 expressed on the cell surface (CHO/PD-L1 cells) (Q9NZQ7 19-290): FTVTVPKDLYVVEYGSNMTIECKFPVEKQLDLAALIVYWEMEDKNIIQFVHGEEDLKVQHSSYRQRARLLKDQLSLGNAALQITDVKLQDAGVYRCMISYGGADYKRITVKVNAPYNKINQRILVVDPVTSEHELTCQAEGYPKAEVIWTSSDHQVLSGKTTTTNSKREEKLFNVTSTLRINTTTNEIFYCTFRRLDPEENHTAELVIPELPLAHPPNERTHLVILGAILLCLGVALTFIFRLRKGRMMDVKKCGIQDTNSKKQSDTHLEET

[5] = molecular target: PD-L1 expressed on the cell surface (CHO/PD-L1 cells) (UniProt Q9NZQ7)

Sequence of CD137 expressed on the cell surface (CHO/CD137 cells) (Q07011 24-255 limits assumed): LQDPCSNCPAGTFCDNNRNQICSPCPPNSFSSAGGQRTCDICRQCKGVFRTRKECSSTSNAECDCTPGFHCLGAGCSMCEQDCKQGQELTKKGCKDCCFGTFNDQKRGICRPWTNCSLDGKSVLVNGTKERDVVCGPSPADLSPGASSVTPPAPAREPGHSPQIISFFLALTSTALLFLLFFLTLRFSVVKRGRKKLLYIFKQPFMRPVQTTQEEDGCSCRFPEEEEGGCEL

Reporter Assay (RLU), 0.08 µg/mL [1]: 1250 RLU
Reporter Assay (RLU), IgG conc 0.02 µg/mL [1]: 1020 RLU
Reporter Assay (RLU), IgG conc 0.1 µg/mL [1]: 1240 RLU
MFI max [2]: 149 MFI
Substance: non-specific mAb (antibody)

EC50 (read off the curve) [3]: 0.06 µg/mL
Substance: replica of the agonistic anti-CD137 mAb urelumab (r-urelumab) (antibody)

EC50 (read off the curve) [4]: 0.01 µg/mL
EC50 (read off the curve) [5]: 0.3 µg/mL
Substance: replica of the anti-PD-L1 antibody atezolizumab (r-atezolizumab)
